Laboratory results reported in the DeepSol protein solubility set.

assay: soluble on expression in E. coli; label from the status in PepcDB or PDB records

| Sequence | soluble on expression in E. coli |
| --- | --- |
| MLLLIDNYDSFTYNLYQYFCELGTEVMVKRNDELQLTDIEQLAPSHVVISPGPCTPNEAGISLAVIRHFADKLPILGVCLGHQALGQAFGARVVRARQVMHGKTSAICHSGQGVFRGLNQPLTVTRYHSLVIATDSLPGRFELTAWTERGGEMDEIMGIRHRTLPLEGVQFHPESILSEQGHQLLDNFLKN | not soluble |
| MLLLLTFIESPIAGIPEIRKHNCLVLPHIFVCLVITKSFGRVVTSGAAVTKRAAGYFGYLAHCAADETTWYACEQFVIGHARKAVTHFIYLA | not soluble |
| MLLQEELEQRTVSVSIQAAKLSGRVLRAAIAAVLQKMEQERTMPKVGRNSMKRLTYKDPGANTIEVSGRIRSFERYARKHQVRYHIEKELGTDPPKWTVYFKANQADALTAAFKEYTKKDLTRSTRPSLLIQLHKFKELAQSLGRDRVKNKEHGGPER | not soluble |
| MLLRFIIGLSSVLLVTGLFNPLLPTLGDYLLTDQQVQKYFSVAGPSNLAIGTCNSVPFASAQAGFASSVGLAPTTTWREANILTNATIGMIDQGMDQLAAVCQARQQFVQTLGAAYDTCTDRFYLISLGNTDWWNVMQYTHLMKHLEFICSTGFDVYQSNIDCIRKGETTDGNQYRACFYKFNATVNANPNNFCGATETFIGCIKDFFDTECNLYVGWMQCELERIGFAYDCYGLSC | not soluble |
| MLLSPEQFSRLSEYAAYSRRKLKDMLSDFQQDGKFYSYLSVDGQTINIDGFRAFLIDYFGADLPSDLVDQLFLSFSKPPIKERRTSLFEDAISTVRAKFSESLSGRMAGLNIAGGSGQQTDRSQSSEPQALVCIPEDDVMGPRVANNDSQEPRIPLKPLICTLSLLEADTPENKLDVVFHVYDSDGNGFLDKSEIDGIIEQMMNVARYQQWDTIELEQVIRQMMVDIDYDNDGIVSFDEWRRGGLTNIPLLVLLGFDTEMKEDGSHVWRLRHFTKPTYCNACCSILVGWGGKQGLSCSLCKYTVHERCVRSAATNCIRTYSSRQQDKLYHHWQDANATAKCVKCKATVGVFQGKGCRWCHNYVHHRCMSALAQECDLGALVHHILPPTHIFPAFLERKTSTSLKNHNFSSHSASLLQAVSPSNDCRPLLVLVNPKSGGKQGVKILQKFEYLLNPRQVYDLSKTGPEPGLQLFSTLKNCNILVCGGDGTIGWVLESMDKMTFPHGRPPVAVLPLGTGNDLARCLRWGGGYENENLHKILEQIEKSSLIDMDRWQIKIEITENKSARRASEKGDTPPYSIINNYFSIGVDASIAHRFHVMREKFPEKFNSRMRNKLWYFELGTSETLSSSCKNLHEQIDILCDGESIDLGQDASLEGIALLNIPSIYGGSNLWGRSRKSKGRMPGLFPMKNAEKMQLQTRVQDIGDGLIELVGLESAMQMGQIKAGVRGARRLSQCSTVVIQTHKSFPMQIDGEPWMQPPCIIQITHKNQAKMLVGEFRHILELSINFFLFTAAAPRKRSSWMLLKRQSTNDDN | not soluble |
| MLMEPQFLRLVSHGANVLDPLSRIEPAAVGMMAGALQKGLAETFTPEAMQDPPRVGLAGFFKQLSDPEVQKALGVLFLFLKALGKAFGHMNEERKTLEAMMAKMMPKK | soluble |
| MLMPRQTTPPLSLPLVGGGRFDLSAETSTRWTLICFYRGLHCPICATYLKELEKRVADFAERGVACVAVSSDSEERAQAMAEKVGGGTLRFAYDLPLAEARDWGLYISTSRGKTSIGIEEPALFSEPGLFLVTPERTLYYGAVQTMPFVR | not soluble |
| MLMSLSRRELIKKEIFDIEEYVPGRSIEEIASTYGLKPESIIKLGSNENPLGPSPKAVKALIEAAPGANIYPSADAHELREALSKYTGFPVSNIVASGPGMDGLLDGLCRIIIEKGDEVIVPIPTFSYYELPARACGAEPVFIRRNQDFSLNPEKILEAVSPRTKIIFLCSPNNPSGNLLPEADLRKIIENTDALVFVDEAYVEFADRNLAALVNEYDNVAVGRTFSKVFGLAGLRLGYGIMPEWLTKEYLRAATPFSVSLPALRAGLAALSDTEYLNKSINLAREGREYLKEKIPFKVYPSQANFVLVDVSPLKAKKVTESLLKKGIIVRPCDSFREAGDSFIRVTVGTPEQNEKVVRAFEISKSEV | not soluble |
| MLNEFDQYLHERYLSGKARKDRWYWNNSIQRGRSTAVRENWQWKPAVAYCRYADDFVLIVKGTKAQAEAIREECRGVLEGSLKLRLNMDKTKITHVNDGFIFLGHRIIRKRSRYGEMRVVSTIPQEKARNFAASLTALLSGNYSESKVDMAEQLNRKLKGWAMFYQFVDFKAKVFSYIDRVVFWKLAHWLARKYRTGIASLMRWWCKSPKPGQSKTWVLFGKTNHGKLSGEILYRLVGQGKKLFRWRLPEGNPYLRTETRNTYTSRFTEVAMAFASI | not soluble |
| MLNIDTQFVDTIGKILSDYVSHSEITRMGEVLGYPQNDQNSGFNKHKRVHNLVSDILNRTQNTDNIKLVIEYVCNPLRYINEVSIFEQLRTAINIPLSLKGLIVSDSGQIVTTTTSKTLSEAKKRFETLDSRLKELKVHPHVLKFCTQELLQENYFHAVFEASKGVFHRIRLLTGSAMDSASLIDQCFKPGEPIVIINGNKLQTLDEQSEYKGLKNLLLAIAHLYRNSKAHKLKYYNPDNLNDALTALTLMSLAHNLLDSCSNTRRLD | soluble |
| MLNMPAEFEQFHWMVDMVQNVDMGLVVIDRDYNVQVWNGFMTHHSGLQSHEAIGRSIFDIFPEIPPEWFKLKTKPVYDLGCRSFITWRQRPYLFRCRNVRPVTQQAEFMYQNVTLNPMRTPTGKINSLFLSIQDATAEALMSQ | not soluble |
| MLNQSLRPLVNVQVRSVSSKYPRPTPRHFKRRLFEAALKPELPPTVNMCIPPGLIKREHTGKSKEYSDVELALSNLVRDWMVREEFRVMAVCQFLPVPGRTLWFAKNQLRSKNIEFRSYGNKILKKIFDKTPMSSLNTVLVGNNAILLAKDISAIKSILQETDKLNWIEPLVMMADGRIVDMVDARELAKLSSLEDLRAHTVQLLGQQVAQVTISLDTVTRHLPSLLDSHISTNQEAKK | not soluble |
| MLNRNRNVNKQNGHQKQNGAQKSELRGKNAPPYLERETCLGRNDIFVVEKMIAGGGFGQVYRARNTETQEEVAVKVERATTNDSQRMILESKVLDDMLGSKHFPNVYYIGPYHSYNFIVMQMLGKNIGDIRKMMPNKKISILSSVRIGIQIIEALSLLHSKGWLHRDLKPTNCCLGLDEKRKTVYLVDFGMSRKFRNDNGSLRESRTYCGFRGTTRYCSYRMHDRREQGPVDDLWCLYYSLGELIEGCLPWRDIESADEMAHVKKILKHEDIFHSMPSKFASFGRNLRRLRPANTPDYTKFQNILAYCVKFVDDNAEFEWDVMDY | not soluble |
| MLNSKPVSYQVLKFILKHLDPSLRIQLCLVCPSIHTLEKSTPSYIHYLKITDNSVTVNRVTCQITVTDRKVDYQFDINQFPSISGTVELRNSRNNLTKTMKYLLDKLFKGRTVKVGQLAISCENPLRVPLAARINVNVLEVFDSRSLSAASSLIANSCLPLSLIKLPFKSLLKTNNNPITSIVNRKTKKWHFKAPTTAPHNLRRVLTFLQNRRVTTAHFERGHFCFSIVIEYFMGDSDIENGTYYTFDTTRGAVFVVMERSRKRYKAMLEDGSSRRSNQLTIKKNSTSKLVISKIQQGDAWILGFKIERRRLFPTFF | not soluble |
| MLNVEPSFAEELRSSGVSLSATYLGSVPVVESINVMVSEMRVQVVSECIQHVAATVGVTAAREINPVVSRPTLHGSMKKPR | not soluble |
| MLPERVLEILREMKRERIKGASWLAKKGAEAFLTLAEELDESLLEDAIMELREEVVKVNPSMASLYNLARFIPVTNRRDILKSRALEFLRRMEEAKRELASIGAQLIDDGDVIITHSFSSTVLEIIRTAKERKKRFKVILTESSPDYEGLHLARELEFSGIEFEVITDAQMGLFCREASIAIVGADMITKDGYVVNKAGTYLLALACHENAIPFYVAAETYKFHPTLKSGDVMLMERDLIRGNVRIRNVLFDVTPWKYVRGIITELGIVIPPRDIQLEHHHHHH | not soluble |
| MLPKRNSGDNELYTNREKRKKMTSYIADSAVFIMGNCGVDSSLLITVPSVADELKSRDSMLRFDLAKEEGLRVEWPEPEMVKEVRKKAEQTRDSEELSKTDLEILAKALEHRETAVLLTDDYAVQNVAVQLGIQVKPIAQKKIKDVLIWQKQCTGCKKTFDKGDECPICGSPLKKKRKRKLKGKGYRESLEHHHHHH | not soluble |
| MLQINQMFSVQLSLGEQTWESEGSSIKKAQQAVANKALTESTLPKPVQKPPKSNVNNNPGSITPTVELNGLAMKRGEPAIYRPLDPKPFPNYRANYNFRGMYNQRYHCPVPKIFYVQLTVGNNEFFGEGKTRQAARHNAAMKALQALQNEPIPERSPQNGESGKDMDDDKDANKSEISLVFEIALKRNMPVSFEVIKESGPPHMKSFVTRVSVGEFSAEGEGNSKKLSKKRAATTVLQELKKLPPLPVVEKPKLFFKKRPKTIVKAGPEYGQGMNPISRLAQIQQAKKEKEPDYVLLSERGMPRRREFVMQVKVGNEVATGTGPNKKIAKKNAAEAMLLQLGYKASTNLQDQLEKTGENKGWSGPKPGFPEPTNNTPKGILHLSPDVYQEMEASRHKVISGTTLGYLSPKDMNQPSSSFFSISPTSNSSATIARELLMNGTSSTAEAIGLKGSSPTPPCSPVQPSKQLEYLARIQGFQAALSALKQFSEQGLDPIDGAMNIEKGSLEKQAKHLREKADNNQAPPGSIAQDCKKSNSAV | soluble |
| MLQQVREQVAARLRLDAGRPWLMVHAGSGGSANNLSIEQYARLIIKLNQACPELQCILTAGPGEERIAEQLAAELLAHGGNGWIYRSDEGLPKFCQVMANAALFVAGSTGPLHIAAALDVPTIGFFPAHRSATPLRWRPLNSEGRHLAFSPPEDSDHPEDMSQLDPKTMAAAIARWAPPFWRTEHLEHHHHHH | not soluble |
| MLRFPENVVICDGKRILWNGLGLPENLVFEMARTVLESNVPLKGKIFCFPAQTVLGKMAIFTDEKTQGRDVLVELLNHELLRMRLYSEEVENLVEVLFNDWRPGKRVFIVRSKNFETRLSLREKLSSFADVIYNAGEIDVGIAPAGTLLQINEEKVSFSDPERDIKEAVRKALLIDRYVNEPFSFYEKLPAYNFSLNIQIPELVKIFLRTGDIQKTSELTEKNVEVVFREILKFEKKTLLSPRIPVEAFLILKGGLD | not soluble |
| MLRISELKLPLDHTQEELADAVAGFLKAPADEVRGFTVFKRSYDARKGVMSLVYIIDVDVANEDKLFARFKGDRRVMPTPDTHYYYVAQAPESLKSRPVVVGFGPCGIFAALILAQMGFKPIVLERGKEVRQRTKDTWGLWRKSELNTESNVQYGEGGAGTFSDGKLYSQIKDPRHLGRKVLTEFVKAGAPEEILYLARPHIGTFRLVSMVENMRAEIIALGGEIRFEQRVDDLILDGDRVRGVKLADGGEVLSDHVVLALGHSARDTFQMLEKRGVYMEAKPFSVGVRIEHPQSLIDAARWGKYAGHPILGAADYKLVHHAGNGRAVYSFCMCPGGTVVAATSEEKRVVTNGMSQYSRNERNANSGFVVSISPEVDYPGGPLAGLDFQRELESKAYELGGGDYFAPAQLLGDFMAGKASTQLGSVEPSYKPGVTMTDLARILPDFCVEAMREAIPHFARQIRGYDLHDAVLTGLETRTSSPLRITRGEDFQSLNIKGLFPAGEGAGYAGGILSAGVDGIKVAEAVAKAMLGQLEHHHHHH | soluble |
